Test results: IntAct's records for PubMed 26297806

B1: Progesterone-induced-blocking factor 1 (Homo sapiens), Q8WXW3 (parent)
chain: MSRKISKESKKVNISSSLESEDISLETTVPTDDISSSEEREGKVRITRQLIERKELLHNIQLLKIELSQKTMMIDNLKVDYLTKIEELEEKLNDALHQKQLLTLRLDNQLAFQQKDASKYQELMKQEMETILLRQKQLEETNLQLREKAGDVRRNLRDFELTEEQYIKLKAFPEDQLSIPEYVSVRFYELVNPLRKEICELQVKKNILAEELSTNKNQLKQLTETYEEDRKNYSEVQIRCQRLALELADTKQLIQQGDYRQENYDKVKSERDALEQEVIELRRKHEILEASHMIQTKERSELSKEVVTLEQTVTLLQKDKEYLNRQNMELSVRCAHEEDRLERLQAQLEESKKAREEMYEKYVASRDHYKTEYENKLHDELEQIRLKTNQEIDQLRNASREMYERENRNLREARDNAVAEKERAVMAEKDALEKHDQLLDRYRELQLSTESKVTEFLHQSKLKSFESERVQLLQEETARNLTQCQLECEKYQKKLEVLTKEFYSLQASSEKRITELQAQNSEHQARLDIYEKLEKELDEIIMQTAEIENEDEAERVLFSYGYGANVPTTAKRRLKQSVHLARRVLQLEKQNSLILKDLEHRKDQVTQLSQELDRANSLLNQTQQPYRYLIESVRQRDSKIDSLTESIAQLEKDVSNLNKEKSALLQTKNQMALDLEQLLNHREELAAMKQILVKMHSKHSENSLLLTKTEPKHVTENQKSKTLNVPKEHEDNIFTPKPTLFTKKEAPEWSKKQKMKT
partner: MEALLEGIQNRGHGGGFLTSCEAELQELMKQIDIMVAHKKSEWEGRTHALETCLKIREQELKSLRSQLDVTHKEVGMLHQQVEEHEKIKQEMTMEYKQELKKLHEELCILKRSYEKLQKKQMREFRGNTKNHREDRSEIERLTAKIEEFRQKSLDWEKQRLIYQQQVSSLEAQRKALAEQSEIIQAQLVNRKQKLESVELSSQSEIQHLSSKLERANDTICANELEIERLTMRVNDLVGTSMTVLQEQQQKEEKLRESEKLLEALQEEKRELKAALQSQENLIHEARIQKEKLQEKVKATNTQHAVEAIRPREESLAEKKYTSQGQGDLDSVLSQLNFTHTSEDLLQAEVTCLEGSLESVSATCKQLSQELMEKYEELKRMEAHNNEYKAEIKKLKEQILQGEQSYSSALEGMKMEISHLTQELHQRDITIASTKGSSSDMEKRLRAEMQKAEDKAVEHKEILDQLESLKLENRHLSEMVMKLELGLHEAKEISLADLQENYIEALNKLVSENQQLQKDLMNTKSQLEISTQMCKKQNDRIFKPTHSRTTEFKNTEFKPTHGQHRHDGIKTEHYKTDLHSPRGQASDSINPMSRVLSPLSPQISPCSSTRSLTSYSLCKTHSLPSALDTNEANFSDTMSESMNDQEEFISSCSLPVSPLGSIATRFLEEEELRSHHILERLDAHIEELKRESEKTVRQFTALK

Variants of: B1
Conditions: with cep63_human CEP63, Q96MT8

effect of a mutation on the interaction	Variant
disrupting interaction strength	E89Q
